Measured values published in US20110195494A1 (Boehringer Ingelheim, published 2011).
Residue numbers refer to the chain shown, from its start. Values joined by “and” are separate entries in the source; they are usually repeats but may differ in a detail not shown here. Equal values may be shown once. Read-outs that look alike come from different tables or passages of the source.

What was measured:
[1] = molecular target: full length mouse DLL4 on overexpressing CHO or HEK293 cells (mouse) (UniProt Q9JI71); experiment: FMAT, hNotch1/Fc on CHO-mDLL4
[2] = molecular target: recombinant human DLL4, C-terminally His-tagged extracellular domain (R&D Systems) (human) (UniProt Q9NR61); experiment: SPR, rhDLL4
[3] = molecular target: full length human DLL4 on overexpressing CHO or HEK293 cells (human) (UniProt Q9NR61); experiment: FMAT, hNotch1/Fc on CHO-hDLL4
[4] = molecular target: recombinant human DLL4, C-terminally His-tagged extracellular domain (R&D Systems) (human) (UniProt Q9NR61); experiment: hDLL4/hNotch1-Fc competition AlphaScreen
[5] = molecular target: recombinant human DLL4, C-terminally His-tagged extracellular domain (R&D Systems) (human) (UniProt Q9NR61); experiment: competition ELISA, summary Table 21
[6] = molecular target: recombinant human DLL4, C-terminally His-tagged extracellular domain (R&D Systems) (human) (UniProt Q9NR61); experiment: hDLL4/hNotch1-Fc competition ELISA
[7] = molecular target: full length human DLL4 on overexpressing CHO or HEK293 cells (human) (UniProt Q9NR61); experiment: FACS on CHO-hDLL4
[8] = molecular target: cynomolgus DLL4 on overexpressing cells (cynomolgus (SEQ ID NO: 418 is the rhesus entry, stated 100% identical)); experiment: FACS on CHO-cDLL4
[9] = molecular target: recombinant human DLL4, C-terminally His-tagged extracellular domain (R&D Systems) (human) (UniProt Q9NR61); experiment: affinity on hDLL4, summary Table 21 (method not named there)
[10] = molecular target: full length mouse DLL4 on overexpressing CHO or HEK293 cells (mouse) (UniProt Q9JI71); experiment: FMAT competition, mDLL4 on cells, summary Table 21
[11] = molecular target: full length mouse DLL4 on overexpressing CHO or HEK293 cells (mouse) (UniProt Q9JI71); experiment: FACS on CHO-mDLL4
[12] = molecular target: recombinant human DLL4, C-terminally His-tagged extracellular domain (R&D Systems) (human) (UniProt Q9NR61); experiment: cell-based or functional assay
[13] = molecular target: full length human DLL4 on overexpressing CHO or HEK293 cells (human) (UniProt Q9NR61); experiment: cell-based or functional assay
[14] = molecular target: recombinant human DLL4, C-terminally His-tagged extracellular domain (R&D Systems) (human) (UniProt Q9NR61); experiment: hDLL4/hNotch1-Fc competition ELISA; remark: listed apart in the source
[15] = molecular target: full length human DLL4 on overexpressing CHO or HEK293 cells (human) (UniProt Q9NR61); experiment: FMAT competition, hDLL4 on cells, summary Table 21
[16] = molecular target: recombinant human DLL4, C-terminally His-tagged extracellular domain (R&D Systems) (human) (UniProt Q9NR61); experiment: binding ELISA, coated rhDLL4
[17] = molecular target: recombinant human DLL4, C-terminally His-tagged extracellular domain (R&D Systems) (human) (UniProt Q9NR61); experiment: SPR Biacore T100, hDLL4 on chip
[18] = molecular target: full length human DLL4 on overexpressing CHO or HEK293 cells (human) (UniProt Q9NR61); experiment: FMAT, hNotch1/Fc on CHO-hDLL4; remark: listed apart in the source
[19] = molecular target: recombinant mouse DLL4, C-terminally His-tagged extracellular domain (R&D Systems) (mouse) (UniProt Q9JI71); experiment: binding ELISA, coated rmDLL4
[20] = molecular target: full length mouse DLL4 on overexpressing CHO or HEK293 cells (mouse) (UniProt Q9JI71); experiment: FMAT, hNotch1/Fc on CHO-mDLL4; remark: listed apart in the source
[21] = molecular target: T1, full length mouse DLL4 on overexpressing CHO or HEK293 cells (mouse, UniProt Q9JI71 27-686); experiment: FMAT, hNotch1/Fc on CHO-mDLL4, periplasmic extract
T1 construct: whole, on cells; also called CHO-mDLL4; mDLL4
Source text: (§1) All calculations are based on the FL1 total signal which comprises the average of the fluorescence per well times the number of counts per well.

[22] = molecular target: T2, full length human DLL4 on overexpressing CHO or HEK293 cells (human, UniProt Q9NR61 27-685); experiment: FMAT, hNotch1/Fc on CHO-hDLL4, periplasmic extract
T2 construct: also called CHO-hDLL4; HEK293-hDII4
Source text: as §1

[23] = molecular target: T1, full length mouse DLL4 on …; experiment: FMAT competition: labelled hNotch1/Fc on CHO-mDLL4 cells
Source text: as §1

human Jagged-1 (Alexis) [24] = molecular target: T3, human Jagged-1 (Alexis) (human, UniProt P78504 34-1067, limits assumed); experiment: binding ELISA, coated rhJagged-1
T3 construct: also called hJag-1; hJAG1

human DLL1 (Alexis) [25] = molecular target: T4, human DLL1 (Alexis) (human, UniProt O00548 18-545, limits assumed); experiment: binding ELISA, coated rhDLL1
T4 construct: also called hDLL1; rhDLL1
T4 sequence (looked up): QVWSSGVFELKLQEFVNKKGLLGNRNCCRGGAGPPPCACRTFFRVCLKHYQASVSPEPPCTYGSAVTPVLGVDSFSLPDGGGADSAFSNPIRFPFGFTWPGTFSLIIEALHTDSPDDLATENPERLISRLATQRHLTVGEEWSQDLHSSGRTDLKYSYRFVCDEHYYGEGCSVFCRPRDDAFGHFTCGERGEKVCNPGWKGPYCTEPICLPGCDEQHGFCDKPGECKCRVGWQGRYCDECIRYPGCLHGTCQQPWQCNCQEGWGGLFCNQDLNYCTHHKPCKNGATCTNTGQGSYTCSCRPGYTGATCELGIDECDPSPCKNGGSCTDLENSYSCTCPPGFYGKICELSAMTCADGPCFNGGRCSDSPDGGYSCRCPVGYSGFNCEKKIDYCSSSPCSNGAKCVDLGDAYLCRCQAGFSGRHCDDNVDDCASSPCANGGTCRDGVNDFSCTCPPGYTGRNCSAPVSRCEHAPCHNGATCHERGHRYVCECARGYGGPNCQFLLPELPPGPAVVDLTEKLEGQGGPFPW

[26] = molecular target: T5, recombinant human DLL4, C-terminally His-tagged extracellular domain (R&D Systems) (human, UniProt Q9NR61 25-522, biotinylated where used in competition ELISA, AlphaScreen and on SA chips); experiment: binding ELISA, coated rhDLL4
T5 construct: also called rhDLL4; hDLL4; not shown: C-terminal His tag

[27] = molecular target: T2, full length human DLL4 on …; experiment: FMAT competition: labelled hNotch1/Fc on CHO-hDLL4 cells
Source text: as §1

human DLL1 (Alexis) [28] = molecular target: T4, human DLL1 (Alexis); experiment: binding ELISA, coated rhDLL1; remark: listed apart in the source
human Jagged-1 (Alexis) [29] = molecular target: T3, human Jagged-1 (Alexis); experiment: binding ELISA, coated rhJagged-1; remark: listed apart in the source

T2 sequence (Q9NR61 27-685 limits assumed): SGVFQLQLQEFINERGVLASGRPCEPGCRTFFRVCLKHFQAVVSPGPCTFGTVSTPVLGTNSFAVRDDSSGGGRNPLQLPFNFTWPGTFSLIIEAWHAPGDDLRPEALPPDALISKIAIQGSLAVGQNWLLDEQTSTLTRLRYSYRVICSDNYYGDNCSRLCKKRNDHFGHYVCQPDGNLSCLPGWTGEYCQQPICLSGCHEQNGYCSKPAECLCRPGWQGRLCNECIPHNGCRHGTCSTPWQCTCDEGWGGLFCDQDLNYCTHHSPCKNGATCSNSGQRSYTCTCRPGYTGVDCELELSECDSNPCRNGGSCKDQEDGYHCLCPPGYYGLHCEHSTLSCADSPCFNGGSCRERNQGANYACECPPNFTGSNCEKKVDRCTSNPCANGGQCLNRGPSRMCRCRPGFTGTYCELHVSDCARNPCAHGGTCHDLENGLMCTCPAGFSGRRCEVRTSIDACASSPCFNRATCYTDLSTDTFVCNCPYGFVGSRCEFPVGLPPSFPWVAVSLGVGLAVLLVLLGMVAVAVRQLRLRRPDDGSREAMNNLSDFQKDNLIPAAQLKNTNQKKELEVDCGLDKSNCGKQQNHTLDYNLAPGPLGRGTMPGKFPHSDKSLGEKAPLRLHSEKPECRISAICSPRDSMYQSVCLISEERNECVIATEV
Sequence of full length human DLL4 on overexpressing CHO or HEK293 cells (human) (Q9NR61 27-685 limits assumed): as above
T1 sequence (Q9JI71 27-686): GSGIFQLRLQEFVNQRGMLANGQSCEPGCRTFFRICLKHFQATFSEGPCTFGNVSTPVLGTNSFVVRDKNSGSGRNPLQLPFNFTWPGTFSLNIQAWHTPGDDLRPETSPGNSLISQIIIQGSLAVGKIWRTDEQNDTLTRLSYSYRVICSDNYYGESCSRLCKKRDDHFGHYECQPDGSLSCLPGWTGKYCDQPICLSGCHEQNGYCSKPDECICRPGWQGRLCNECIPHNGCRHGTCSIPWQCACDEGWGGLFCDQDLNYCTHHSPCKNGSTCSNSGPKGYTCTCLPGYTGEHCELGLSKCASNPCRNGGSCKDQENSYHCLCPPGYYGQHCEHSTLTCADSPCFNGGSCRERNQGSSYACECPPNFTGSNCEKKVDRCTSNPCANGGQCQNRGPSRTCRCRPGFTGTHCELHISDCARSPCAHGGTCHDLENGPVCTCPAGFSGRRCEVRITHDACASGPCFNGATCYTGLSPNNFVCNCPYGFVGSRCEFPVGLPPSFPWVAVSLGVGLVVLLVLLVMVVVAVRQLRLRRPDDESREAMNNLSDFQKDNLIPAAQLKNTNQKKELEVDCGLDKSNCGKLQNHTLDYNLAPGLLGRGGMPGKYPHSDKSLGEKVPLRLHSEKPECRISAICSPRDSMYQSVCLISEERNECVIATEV
Sequence of full length mouse DLL4 on overexpressing CHO or HEK293 cells (mouse) (Q9JI71 27-686): as above
Sequence of recombinant human DLL4, C-terminally His-tagged extracellular domain (R&D Systems) (human) (Q9NR61 25-522): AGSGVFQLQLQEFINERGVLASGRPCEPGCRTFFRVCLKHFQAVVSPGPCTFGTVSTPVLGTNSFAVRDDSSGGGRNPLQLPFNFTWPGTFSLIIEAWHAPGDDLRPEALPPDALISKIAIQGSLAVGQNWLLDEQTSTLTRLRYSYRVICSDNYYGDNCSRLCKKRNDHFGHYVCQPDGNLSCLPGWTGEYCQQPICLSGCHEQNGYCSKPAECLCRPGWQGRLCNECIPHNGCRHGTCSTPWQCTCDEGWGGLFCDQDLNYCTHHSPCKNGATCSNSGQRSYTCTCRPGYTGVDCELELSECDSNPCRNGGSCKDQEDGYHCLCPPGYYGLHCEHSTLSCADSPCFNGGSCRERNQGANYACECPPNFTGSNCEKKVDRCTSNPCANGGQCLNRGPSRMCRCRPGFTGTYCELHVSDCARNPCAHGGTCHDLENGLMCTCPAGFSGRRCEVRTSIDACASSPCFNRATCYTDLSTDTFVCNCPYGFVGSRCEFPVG
T5 sequence (Q9NR61 25-522): as above
Sequence of recombinant mouse DLL4, C-terminally His-tagged extracellular domain (R&D Systems) (mouse) (Q9JI71 27-532): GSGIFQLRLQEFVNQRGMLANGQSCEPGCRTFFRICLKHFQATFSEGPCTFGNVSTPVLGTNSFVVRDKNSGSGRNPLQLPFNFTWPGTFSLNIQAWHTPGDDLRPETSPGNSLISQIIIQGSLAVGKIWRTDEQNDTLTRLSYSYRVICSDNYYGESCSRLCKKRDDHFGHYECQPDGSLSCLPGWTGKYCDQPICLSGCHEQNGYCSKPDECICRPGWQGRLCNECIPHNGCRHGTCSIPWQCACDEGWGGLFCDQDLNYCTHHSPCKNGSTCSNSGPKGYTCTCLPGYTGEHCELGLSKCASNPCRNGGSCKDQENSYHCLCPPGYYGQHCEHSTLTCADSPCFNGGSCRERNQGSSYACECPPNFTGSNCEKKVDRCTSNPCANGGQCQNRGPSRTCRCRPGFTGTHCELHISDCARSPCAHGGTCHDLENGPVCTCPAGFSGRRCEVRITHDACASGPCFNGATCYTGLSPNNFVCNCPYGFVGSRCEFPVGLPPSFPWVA
Sequence of cynomolgus DLL4 on overexpressing cells (cynomolgus (SEQ ID NO: 418 is the rhesus entry, stated 100% identical)) (Q9NR61 other isoform, or with tags, fused parts or gaps limits assumed): as the sequence (Q9NR61 27-685 limits assumed) above, with I12V, T52S, N359S, L413R, N434S counted along it

B1: anti-DLL4 Fab fragment (of the Genentech anti-DLL4 mAb of US 2008/0014196) (Fab)
heavy: EVQLVESGGGLVQPGGSLRLSCAASGFTFTDNWISWVRQAPGKGLEWVGYISPNSGFTYYADSVKGRFTISADTSKNTAYLQMNSLRAEDTAVYYCARDNFGGYFDYWGQGTLVTVSS
light: DIQMTQSPSSLSASVGDRVTITCRASQDVSTAVAWYQQKPGKAPKLLIYSASFLYSGVPSRFSGSGSGTDFTLTISSLQPEDFATTYYCQQSYTGTVTFGQGTKVEIK
Binder B1 has an IC50 [1] of 2.3 nM, a Kd [2] of 1.5 nM and a koff [2] of 0.00034 s⁻¹. The kon [2] was 230000 M⁻¹ s⁻¹, the IC50 [3] was 5.4 nM and the IC50 [4] was 0.3 nM. For the same binder, the IC50 [5] was 1.5 nM and 1.2 nM, the IC50 [6] was 0.7 nM and the EC50 [7] was 5.6 nM. For the same binder, the EC50 [8] was 2.5 nM, the Kd [9] was 1.5 nM and the IC50 [10] was 3 nM and 1.6 nM. The EC50 [11] was 2.1 nM, the IC50 (nM) (experiment 1), DLL4 proliferation assay (HUVEC) [12] was 4.9 nM and the IC50 (nM) (experiment 2), DLL4 proliferation assay (HUVEC) [12] was 5.6 nM. The IC50, DLL4/Notch1 reporter assay [13] was 133 nM, the IC50 [14] was 1.5 nM and 1.2 nM and the IC50 [15] was 5.5 nM and 3.4 nM. The EC50 [16] was 3 nM, the EC50 (read off the curve) [16] was 800 pM and the Kd [17] was 1.5 nM. For the same binder, the koff [17] was 0.00034 s⁻¹, the kon [17] was 230000 M⁻¹ s⁻¹ and the IC50 [18] was 5.5 nM and 3.4 nM. The EC50 [19] was 3 nM, the EC50 (read off the curve) [19] was 900 pM and the IC50 [20] was 3 nM and 1.6 nM.

B2: DLLBII104G01 (VHH)
VHH: EVQLVESGGGLVQAGGSLRLSCAASGFTFDDYAIGWFRQAPGKEREGVSCISSSDGSTYYADSVKGRFTISSDNAKNTVYLQMNSLKPEDTAVYYCATAWCDSSWYRSFVGYWGQGTQVTVSS
notes: also called DLLBII104G1; 104G1; not shown: C-terminal c-myc tag and His6 tag
In the case of B2, the “FMAT mDLL4 % inhibition” value [21] is reported as 86%, the “FMAT hDLL4 % inhibition” value [22] is reported as 94% and the “IC50 (read off the curve)” value [23] is reported as 64 to 70 nM.

B3: DLLBII129B05 (VHH)
VHH: EVQLVESGGGLVQAGGSLRLSCAASGRTFSSYAMAWYRQAPGKEREYVAAIRWSGGTAYYADSVQGRFTISRDNAKNTVYLQMNSLKPEDTAVYYCANRAPDTRLAPYEYDHWGQGTQVTVSS
notes: not shown: C-terminal c-myc tag and (His)6 tag
In the case of B3, the binding result (human Jagged-1 (Alexis) [24]) is reported as “no binding (tested: 1e-6 M)”, the binding result (human DLL1 (Alexis) [25]) is reported as “no binding (tested: 1e-6 M)” and the “EC50 (read off the curve)” value [26] is reported as roughly 600 pM.

B4: DLLBII129D08 (VHH)
VHH: B3 VHH with A106E, E109L, H112Y
notes: as for B3
B4 was tested, and the binding result (human Jagged-1 (Alexis) [24]) was “no binding (tested: 1e-6 M)”, the binding result (human DLL1 (Alexis) [25]) was “no binding (tested: 1e-6 M)” and the “EC50 (read off the curve)” value [26] was roughly 600 pM.

B5: DLLBII129E11 (VHH)
VHH: B3 VHH with A106R, E109L, H112Y
notes: as for B3
For B5, the binding result (human Jagged-1 (Alexis) [24]) was “no binding (tested: 1e-6 M)”, the binding result (human DLL1 (Alexis) [25]) was “no binding (tested: 1e-6 M)” and the “EC50 (read off the curve)” value [26] was roughly 600 pM.

B6: 78B03 (VHH)
VHH: EVQLVESGGGLVQAGGSLRLSCAASGRTFSNYIMGWFRQAPGKEREFVAGISRYGDYTAYADSVKGRFTISRDNVKNTVYLRMNSLKPDDTAVYYCAANEGYCSGYGCYEDSGQYDYWGQGTQVTVSS
notes: also called DLLBII78B03
B6: binds [27]; binds [23].

B7: DLLBII83G01 (VHH)
VHH: B6 VHH with G55A, A59G
notes: tested as periplasmic extract; also called DLLBII83G1; not shown: C-terminal c-myc tag and His6 tag
With B7 the “FMAT mDLL4 % inhibition” value [21] was 93%, the “FMAT hDLL4 % inhibition” value [22] was 87% and the “IC50 (read off the curve)” value [23] was roughly 50 nM.

B8: 83G04 (VHH)
VHH: EVQLVESGGGLVKPGGSLRLSCAASGRTLYIMGWYRQAPGKEREFVAGISRYGDITYAADSVKGRFTISRDSVKNTVYLRMNSLKPDDTAVYYCAANGGYCSGYGCYEDSGQYDYWGQGTQVTVSS
notes: also called DLLBII83G04
For B8, the binding result [27] was “binds” and the “IC50 (read off the curve)” value [23] was roughly 40 nM.

B9: DLLBII015 (VHH)
VHH: EVQLVESGGGLVQPGGSLRLSCAASGFTIGSYDMSWVRRSPGKGPEWVSAINSGGGSTYYADYVKGRFTISRDNAKNTLYLQMNSLKPEDTAVYYCAADRYIWARQGEYWGAYAYDYWGQGTQVTVSS
notes: as for B3
B9: no binding (tested: 1e-6 M) (human DLL1 (Alexis) [28]); no binding (tested: 1e-6 M) (human Jagged-1 (Alexis) [29]).

B10: DLLBII133A09 (VHH)
VHH: B9 VHH with I29F
notes: as for B3
B10: no binding (tested: 1e-6 M) (human DLL1 (Alexis) [28]); no binding (tested: 1e-6 M) (human Jagged-1 (Alexis) [29]).

B11: DLLBII133G05 (VHH)
VHH: B9 VHH with I29F, A61T
notes: as for B3
B11: no binding (tested: 1e-6 M) (human DLL1 (Alexis) [28]); no binding (tested: 1e-6 M) (human Jagged-1 (Alexis) [29]).

B12: DLLBII136C07 (VHH)
VHH: B9 VHH with I29F, A50S, A114E
notes: as for B3
B12: no binding (tested: 1e-6 M) (human DLL1 (Alexis) [28]); no binding (tested: 1e-6 M) (human Jagged-1 (Alexis) [29]).
